Experimental data from article PMC12167710 (Nature Biotechnology, 2024).
Numbering of substitutions follows the chain as printed.

B1: hRBD1 (antibody, V domains shown)
VH: QVQLVQSGSELKKPGASVKVSCKASGNTLTNHALNWVRQAPGQGLEWMGWINTNTGIPTYAQGFTGRFVFSLDTSVSTAYLQISSLKAEDTAVYYCARVGQTAIAALDDAFDIWGQGTMVTVSS
VL: not shown
B2: hRBD2 (antibody, V domains shown)
VH: B1 VH with N27Y, L29F, T30S, H32Y, L34I, I57H, T74A, S77T, Q101R
VL: not shown
B3: hRBD12 (antibody, V domains shown)
VH: EVQLVESGGGLVQPGGSLRLSCAASGLTVSSNYMSWVRQAPGKGLEWVSVIYSGGSTYYADSVKGRFTISRDNSKNTLYLLMNSLRAEDTAVYYCARDLQQLGGMDVWGQGTTVTVSS
VL: not shown
B4: hRBD14 (antibody, V domains shown)
VH: EVQLVESGGGLVQPGGSLRLSCAASGFSFSSSDMHWVRQATGKGLEWVSGIGTSGDTYYLGSVKGRFTISRDDAKNSFYLQMNSLRAGDTAVYYCARGEMAATGLWYYFDYWGQGTLVTVSS
VL: not shown
B5: hRBD15 (antibody, V domains shown)
VH: QVQLVQSGAEVKKPGASVKVSCKASGYTFTSQYMHWVRQAPGQGLEWMGIINPSGGSTSYAQKFQGRVTMTSDTSTSTVYMELSSLRSEDTAVYYCARDIYFVPARGGFDPWGQGTLVTVSS
VL: EIVLTQSPGTLSLSPGERATLSCRASQSIISSYLAWYQQKPGQAPRLLIYGASSRATGIPDRFSGSGSGTDFTLTISRLEPEDFAVYYCQQSGSAPRYTFGQGTKLEIK
B6: hRBD5 (antibody, V domains shown)
VH: QVQLQQWGAGLLQPSETLSLTCAVYGGSFSDYYWSWIRQPPGRGLEWIGEIDHSGSTNYNPSLKSRVTILVDTSKNQFSLKLSSVTAADTAVYYCARAHLIGHCGDGGCYSGPDPSSWFDPWGQGTLVIVSS
VL: SSELTQDPAVSVALGQTVRITCQGDSLRRYFASWYQQKPGQAPVLVIYGKNIRPSGIPDRFSGSSSGNTGSLTITGAQAEDEADYYCHSRDSSGHHPLFGGGTKLTVL
B7: hRBD6 (antibody, V domains shown)
VH: QVQLQQWGAGLLKPSETLSLSCAVYGGAFSDYYWSWIRQPPGKGLEWIGEIDLSGSTNYNPSLKSRVTISVDTSKNQFSLKLISVTAADTAVYYCARTHLIGYCSGGSCYSGPDPSNWFDPWGQGTLVTVSS
VL: B6 VL with R29S, F31Y, I52N, G70A, H88N, S92T, L98V
B8: hRBD8 (antibody, V domains shown)
VH: QVQLQQWGAGRLKPSETLSLTCAVYGGSFSGYYWSWIRQPPGKGLEWIGEIDHSGSTNYNSSLKSRVTISVDTSKKWFSLKLSSVTAADTAVYYCARAHLIGDCGGGRCYSGPDPSNWFDPWGQGTLVTVSS
VL: SSELTQDPAVSVALGQTVRITCQGDSLRSYYASWYQQKPGQAPILVIYGKDNRPSGIPDRFSGSSSENTASLTITGAQAEDEADYYCNCRDTSGNHPVFGGGTKLTVL
B9: hRBD9 (antibody, V domains shown)
VH: EVQLVESGGGLIQPGGSLRLSCAASGLTVSSNYMNWVRQAPGKGLEWVSVLYSGGSTYYADSVKGRFTISRDNSKNTLYLQMNSLRAEDTAVYYCARDLVAYGMDVWGQGTTVTVSS
VL: DIQLTQSPSFLSASVGDRVTITCRASQGISSDLAWYQQKPGKAPKLLIYAASTLQSGVPSRFSGSGSGTEFTLTISSLQPEDFATYYCQQLNSYPTFGQGTRLEIK
B10: hRBD3 (antibody, V domains shown)
VH: QLQLQESGPRLVRPSETLSLTCTVSGGSINSGTHYCGWIRQSPGKGLEWIGSIYYSGTTYYNPSLKSRVTISVDTSKNQFSLKLSSVTAADTAVYFCARRRAGSYFKDLSDYWGQGTLVTVSS
VL: NFMLTQPHSVSESPGKTVTISCTRSSGSIASNYVQWYQQRPGGAPTTVIYEDNQRPSGVPDRFSGSIDTSSNSASLTISGLKTDDEADYYCQSYDSTNHEVFGGGTKLTVL
B11: hRBD4 (antibody, V domains shown)
VH: QLQLQESGPGLVKPSETLSLTCTVSGGSISTSSHYCAWIRQPPGKGLEWIGSIYYRGSTYYNPSLKSRVTISVDTSKNHFSLKLSSVTAADTAVYYCARRRAGSYYKDLFDYWGQGTLVTVSS
VL: B10 VL with G43S, T69S, D84E, S96N, T97S
B12: hRBD13 (antibody, V domains shown)
VH: QVQLVESGGGVVQPGRSLRLSCAVSGFTFRNYGMDWVRQAPGKGLEWVAVISYDGSNKYYADSVKGRFTISRDNSKNTLFLHLNSLRAEDTAVYYCAKAGGGPYCGGGNCYMHYFDYWGQGTQVTVSS
VL: DIQMTQSPSSLSASVGDRVTITCQASQDINNYLNWYQQKPGKAPKLLIYDASNLETGVPLRFSGSGSATHFSFTISSLQPEDIATYYCQQYDHLPCTFGQGTKLEIR
B13: hRBD16 (antibody, V domains shown)
VH: EVQLVESGGALIQPGGSLRLSCAASGFTVSSNYMYWVRQAPGKGLEWVSLIYPGGSTFYADSVKGRFTISRDNSENTLYLQMNSLRAEDTAVYYCARGPYGDSNWGQGTLVTVSS
VL: B12 VL with N30R, E55K, L60S, A68G, H70D, S72T, H93N, C96I, K103R, R107K

Legend:
[1] = molecular target: T1, receptor-binding domain (RBD) of the wild-type SARS-CoV-2 spike protein (SARS-CoV-2, UniProt P0DTC2 333-527); assay: BLI; conditions: both partners purified
T1 construct: also called SARS-CoV-2 RBD

[2] = molecular target: T1, receptor-binding domain (RBD) of the …; assay: cell-based or functional assay

Binder	Kd [1] [nM]	other [2] [ng/mL]
B1	0.0171	83
B2	0.0652	91.7
B3	0.219	20.8
B4	0.618	
B5	0.0382	64400
B6	0.127	10.7
B7	5.09	32.7
B8	9.74	49.6
B9	0.126	20.2
B10	< 0.001	11.6
B11	0.491	8.9
B12	< 0.001	48600
B13	< 0.001	
